Data taken from patent US20030143191A1, “Chemokine beta-1 fusion proteins” (priority 2001, published 2003).

Tests used:
monocytes = conditions: cited from earlier work
CCR1 = molecular target: T1, CCR1 (Homo sapiens, UniProt P32246); conditions: Detheux et al., J. Exp. Med. 192:1501-1508 (2000); cited from earlier work
T1 sequence (P32246 1-355): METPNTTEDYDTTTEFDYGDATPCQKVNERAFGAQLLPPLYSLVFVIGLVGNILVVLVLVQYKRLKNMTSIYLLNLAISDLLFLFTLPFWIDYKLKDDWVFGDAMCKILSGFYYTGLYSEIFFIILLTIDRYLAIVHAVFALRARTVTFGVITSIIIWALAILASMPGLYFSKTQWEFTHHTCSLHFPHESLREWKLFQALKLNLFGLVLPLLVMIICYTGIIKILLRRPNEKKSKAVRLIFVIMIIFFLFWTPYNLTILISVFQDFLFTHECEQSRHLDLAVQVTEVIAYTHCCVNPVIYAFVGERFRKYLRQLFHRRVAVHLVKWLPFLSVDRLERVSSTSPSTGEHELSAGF

[1] = system: Jaks-STATS signal transduction pathway; test: GAS-SEAP/U937 reporter assay for myeloid activity; type: cell-based; conditions: GAS-SEAP/U937 cells; 100 Unit/ml; positive control wells; 48 to 72 hr
Experimental: The following protocol is used to assess myeloid activity of a fusion protein (e.g. albumin fusion protein) of the present invention by determining whether the fusion protein proliferates and/or differentiates myeloid cells. Myeloid cell activity is assessed using the GAS/SEAP/Neo construct produced in Example 29. Thus, factors that increase SEAP activity indicate the ability to activate the Jaks-STATS signal transduction pathway. The myeloid cell used in this assay is U937, a pre-monocyte cell line, although TF-1, HL60, or KG1 can be used.
To transiently transfect U937 cells with the GAS/SEAP/Neo construct produced in Example 29, a DEAE-Dextran method (Kharbanda et. al., 1994, Cell Growth & Differentiation, 5:259-265) is used. First, harvest 2×10^7 U937 cells and wash with PBS. The U937 cells are usually grown in RPMI 1640 medium containing 10% heat-inactivated fetal bovine serum (FBS) supplemented with 100 units/ml penicillin and […] streptomycin.
Next, suspend the cells in 1 ml of 20 mM Tris-HCl (pH 7.4) buffer containing 0.5 mg/ml DEAE-Dextran, 8 ug GAS-SEAP2 plasmid DNA, 140 mM NaCl, 5 mM KCl, 375 uM Na2HPO4.7H2O, 1 mM MgCl2, and 675 uM CaCl2. Incubate at 37 degrees C. for 45 min.
Wash the cells with RPMI 1640 medium containing 10% FBS and then resuspend in 10 ml complete medium and incubate at 37 degree C. for 36 hr. […]

[2] = system: Jaks-STATS signal transduction pathway; test: Jurkat:GAS-SEAP reporter assay for T-cell activity; type: cell-based; conditions: Jurkat:GAS-SEAP cells; 100 Unit/ml; positive control wells; 48 hrs
Experimental: The following protocol is used to assess T-cell activity by identifying factors, and determining whether a fusion protein (e.g. albumin fusion protein) of the invention proliferates and/or differentiates T-cells. T-cell activity is assessed using the GAS/SEAP/Neo construct produced in Example 29. Thus, factors that increase SEAP activity indicate the ability to activate the Jaks-STATS signal transduction pathway. The T-cell used in this assay is Jurkat T-cells (ATCC Accession No. TIB-152), although Molt-3 cells (ATCC Accession No. CRL-1552) and Molt-4 cells (ATCC Accession No. CRL-1582) cells can also be used.
Jurkat T-cells are lymphoblastic CD4^+ Th1 helper cells. In order to generate stable cell lines, approximately 2 million Jurkat cells are transfected with the GAS-SEAP/neo vector using DMRIE-C (Life Technologies)(transfection procedure described below). The transfected cells are seeded to a density of approximately 20,000 cells per well and transfectants resistant to 1 mg/ml genticin selected. Resistant colonies are expanded and then tested for their response to increasing concentrations of interferon gamma.
Specifically, the following protocol will yield sufficient cells for 75 wells containing 200 ul of cells. Thus, it is either scaled up, or performed in multiple to generate sufficient cells for multiple 96 well plates. […]

CCR3 = molecular target: T2, CCR3 (Homo sapiens, UniProt P51677); conditions: Detheux et al., J. Exp. Med. 192:1501-1508 (2000); cited from earlier work
T2 sequence (P51677 1-355): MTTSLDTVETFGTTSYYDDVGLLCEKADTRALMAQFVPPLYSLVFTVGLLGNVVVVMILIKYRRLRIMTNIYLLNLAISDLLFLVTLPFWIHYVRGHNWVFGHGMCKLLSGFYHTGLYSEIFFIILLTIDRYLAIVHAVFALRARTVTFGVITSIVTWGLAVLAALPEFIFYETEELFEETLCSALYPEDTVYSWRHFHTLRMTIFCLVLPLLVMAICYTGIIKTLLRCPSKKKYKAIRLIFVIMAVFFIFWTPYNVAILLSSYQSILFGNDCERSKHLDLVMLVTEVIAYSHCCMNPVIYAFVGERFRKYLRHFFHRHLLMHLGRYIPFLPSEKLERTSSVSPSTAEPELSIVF

CCR5 = CCR5 (Homo sapiens, UniProt P51681); conditions: Detheux et al., J. Exp. Med. 192:1501-1508 (2000); cited from earlier work
human monocytes = test: Cytokine release from human monocytes (ELISA of culture supernatants); type: cell-based; conditions: human monocytes (1×10^6), 1 day incubation
Experimental: To evaluate the in vitro activity of Ckb1(G-28-N93) and Ckb1(G-28-N93) fused to human serum albumin, proteins produced by these constructs were incubated with human monocytes (1×10^6) for 1 day. Culture supernatants were collected and analyzed by ELISA for cytokine content.

Chain of CCR5 (P51681 whole entry, species assumed): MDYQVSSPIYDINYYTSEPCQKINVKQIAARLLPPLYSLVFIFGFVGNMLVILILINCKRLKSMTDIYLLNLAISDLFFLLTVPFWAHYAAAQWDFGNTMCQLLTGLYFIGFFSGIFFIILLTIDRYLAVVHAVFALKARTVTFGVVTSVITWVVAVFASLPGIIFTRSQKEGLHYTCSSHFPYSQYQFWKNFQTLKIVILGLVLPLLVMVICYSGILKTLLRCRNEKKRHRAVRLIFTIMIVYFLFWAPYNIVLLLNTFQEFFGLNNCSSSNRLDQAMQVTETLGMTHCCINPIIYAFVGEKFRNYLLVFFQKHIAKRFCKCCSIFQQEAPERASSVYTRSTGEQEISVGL

B1: Ckb1: human chemokine beta 1; mature form of 74 amino acids, amino acids 1-74 of SEQ ID NO:2 (protein, listed as Homo Sapiens)
chain: MKISVAAIPFFLLITIALGTKTESSSRGPYHPSECCFTYTTYKIPRQRIMDYYETNSQCSKPGIVFITKRGHSV
monocytes
  activation of monocytes: weak activator
CCR1
  agonism / activation of CCR1: activates CCR1 at high (supraphysiological) concentrations

B2: IFN-g: IFN family ligand; positive control known to activate Jurkat T cells and U937 cells (protein, UniProt P01579 24-161, looked up)
Interferon gamma: QDPYVKEAENLKKYFNAGHSDVADNGTLFLGILKNWKEESDRKIMQSQIVSFYFKLFKNFKDDQSIQKSVETIKEDMNVKFFNSNKKKRDDFEKLTNYSVTDLNVQRKAIHELIQVMAELSPAAKTGKRKRSQMLFRG
[1]
  induction (SEAP reporter activity): Over 30 fold
[2]
  induction (SEAP reporter activity): Over 30 fold

B3: Ckb1 [9-74]: N-terminal deletion variant of Ckb1 consisting of amino acids 9-74 of SEQ ID NO:2 (Detheux et al.) (protein, listed as Homo Sapiens)
chain: PFFLLITIALGTKTESSSRGPYHPSECCFTYTTYKIPRQRIMDYYETNSQCSKPGIVFITKRGHSV
CCR3
  agonism of CCR3: potent agonist
CCR5
  agonism of CCR5: potent agonist
CCR1
  agonism / activation of CCR1: potent agonist

B4: Ckb1(G28-N93): Ckb1 polypeptide, residues G28-N93, not fused (protein)
chain: GPYHPSECCFTYTTYKIPRQRIMDYYETNSQCSKPGIVFITKRGHSVCTNPSDKWVQDYIKDMKEN
Human monocytes
  release of IL-1β: induced release
  release of IL-6: induced release
  release of TNF-alpha: induced release
